Experimental data as given in patent US20230046828A1 (OXFORD UNIVERSITY INNOVATION, published 2023).

Tests used:
[1] = target: T1, RAGE-Fc chimera protein (BioTechne, 1145-RG) (UniProt Q15109 24-344); test: BLI: RAGE-Fc on AHC sensors, HMGB1 construct 0-25 µM in solution; kinetics plot
T1 construct: Bought reagent; also called Fc-RAGE; not shown: CH domain of IgG (Fc)
Protocol: (§1) RAGE-Fc was immobilized in the surface of AHC sensors and dipped in rising concentration of different HMGB1 constructs. Two experiments were run with different concentration ranges: the three columns of graphs in the left, 0 to 22.22 μM HMGB1 over 9 steps; on the right, 0 to 25 μM over 7 steps. Both are color-coded by concentration (top). Colors indicate the specific construct concentration. Each graph corresponds to a single sensor (replicate).
(§2) Pre-hydrated streptavidin Octet Biosensors (FortéBio 18-5019) were coated with 4 μM solutions of biotinylated HMGB1 proteins in 10 mM HEPES, pH 7.5, 150 mM NaCl (Base buffer-BB) plus, 0.5 mM TCEP (60″ baseline, 60″ binding). Nonspecific binding was minimized by incubation for 3′ in BB+1% BSA+0.05% Tween-20 (Kinetics Buffer, KB) prior to kinetics assays. […] An OctetRed 384 instrument was used for these experiments. Kinetics data were extracted with DataAnalysis 9.0 (FortéBio). Response at equilibrium REq was plotted against concentration in a Michaelis-Menten saturation plot to calculate kD/Bₘₐₓ (saturation plot of concentration against rEq). Kinetic rates (association rate; kₒₙ and dissociation rate; koff) were derived from the direct measurements of each parameter from all the association and dissociation steps in the interferogram, and fitted to a horizontal line (mean) across all measurements. Data from each replicate run were pooled in the same manner to calculate the overall mean. For measuring RAGE binding kinetics to HMGB1, 15 μg/mL RAGE-Fc in PBS+0.1% BSA+0.02% Tween-20 was immobilized on the surface of anti-IgG biosensors (AHC, 18-5060) over 30″ and dipped in serial concentrations of each HMGB1 construct (60″ baseline, 200″ association/dissociation) and fitted in the same manner to derive kinetic parameters.

[2] = target: T1, RAGE-Fc chimera protein (BioTechne, …); test: BLI: RAGE-Fc on AHC sensors, HMGB1 construct 0-25 µM in solution; saturation fit
Protocol: as §1, §2

[3] = target: T1, RAGE-Fc chimera protein (BioTechne, …); test: hybrid ELISA: HMGB1 construct coated, RAGE-Fc titrated, anti-human IgG-HRP, OD450 normalized to DS-HMGB1; saturation fit
Protocol: (§3) Nonspecific binding was blocked by incubation with 10% BSA in PBS for 2 h, at 20-25° C. A concentration range of RAGE-Fc chimera protein (BioTechne, 1145-RG; 0-640 nM in 1:4 dilutions) was added in 10% BSA/PBS and allowed to bind for 2 h, at 4° C. Bound FC chimera was detected by incubation with Anti-Human IgG HRP (Agilent Dako P021402-2) diluted 1:10000 in 1% BSA/PBS for 2 h, at 20-25° C. Between each of these 3 steps, the plate was washed with 100 μL PBST, three times.
(§4) OD 450 was measured as a readout (FluoStar OMEGA, BMG Labtech) and plotted as a saturation fit against 2× RAGE-Fc concentration (as the chimera is a RAGE dimer).

CXCL12 (CXC Ligand 12) [4] = target: T2, CXCL12 (CXC Ligand 12) (UniProt O62657 22-89); test: BLI, biotinylated HMGB1 construct on streptavidin sensor, CXCL12 0-150 µM in solution; kinetics rates derived from interferogram
T2 construct: mature; Untagged in BLI and NMR; CXCL12-His6 was used at 1 µM on the HMGB1 SPOT peptide arrays; also called CXCL12A-c021, wt 1-67, no tag; CXCL12-His6
T2 sequence (P48061 22-89): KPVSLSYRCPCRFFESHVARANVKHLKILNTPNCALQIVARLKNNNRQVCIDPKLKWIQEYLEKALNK
Protocol: as §2

CXCL12 (CXC Ligand 12) [5] = target: T2, CXCL12 (CXC Ligand 12); test: BLI, biotinylated HMGB1 construct on streptavidin sensor, CXCL12 0-150 µM in solution; Michaelis-Menten (saturation) Req fit
Protocol: as §2

[6] = target: T1, RAGE-Fc chimera protein (BioTechne, …); test: BLI, RAGE-Fc on AHC sensors
Protocol: as §2

[7] = target: T1, RAGE-Fc chimera protein (BioTechne, …); test: hybrid ELISA: HMGB1 construct coated, RAGE-Fc titrated, anti-human IgG-HRP, OD450 normalized to DS-HMGB1; saturation fit (Kd cell: Invalid fit)
Protocol: as §3, §4

T1 sequence (Q15109 24-344, change not shown): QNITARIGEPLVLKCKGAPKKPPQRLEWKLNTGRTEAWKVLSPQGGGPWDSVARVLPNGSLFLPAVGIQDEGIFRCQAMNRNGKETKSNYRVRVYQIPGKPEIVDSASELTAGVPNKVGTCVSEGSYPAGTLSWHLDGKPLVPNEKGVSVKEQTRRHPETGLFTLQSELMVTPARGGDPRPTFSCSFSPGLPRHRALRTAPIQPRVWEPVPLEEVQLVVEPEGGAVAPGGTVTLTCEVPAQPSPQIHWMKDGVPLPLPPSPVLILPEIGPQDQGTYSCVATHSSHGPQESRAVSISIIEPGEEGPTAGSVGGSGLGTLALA

Kd [1] [nM]	koff [1] [s⁻¹]	kon [1] [M⁻¹ s⁻¹]	Kd [2] [nM]	Kd [3] [nM]	Kd (CXCL12 (CXC Ligand 12) [4]) [µM]	koff (CXCL12 (CXC Ligand 12) [4]) [s⁻¹]	kon (CXCL12 (CXC Ligand 12) [4]) [M⁻¹ s⁻¹]	Kd (CXCL12 (CXC Ligand 12) [5]) [µM]	Kd [6] [nM]	Bmax [7] [nM]	fold association rate against FR-HMGB1 [6] [fold]	fold dissociation rate against FR-HMGB1 [6] [fold]	Binder
200	0.043	215000	1300	4.35	–	–	–	–	200 to 1300	–	–	–	disulfide HMGB1, full-length (ligand, disulfide bond between Cys 22 and Cys 44, also called DS-HMGB1; FL-DS-HMGB1) GKGDPKKPRGKMSSYAFFVQTCREEHKKKHPDASVNFSEFSKKCSERWKTMSAKEKGKFEDMAKADKARYEREMKTYIPPKGETKKKFKDPNAPKRPPSAFFLFCSEYRPKIKGEHPGLSIGDVAKKLGEMWNNTAADDKQPYEKKAAKLKEKYEKDIAAYRAKGKPDAAKKGVVKAEKSKKKKEEEEDEEDEEDEEEEEDEEDEDEEEDDDDE
900	0.015	17000	3000	7.22	11.7	0.145	12000	8.79	–	–	–	–	non-oxidizable 3S-HMGB1, full-length (1-214) (ligand, Biotinylated (c022) in BLI with CXCL12, His6-tagged in the reverse peptide array; also called 3S-FL HMGB1 (c022)) GKGDPKKPRGKMSSYAFFVQTSREEHKKKHPDASVNFSEFSKKSSERWKTMSAKEKGKFEDMAKADKARYEREMKTYIPPKGETKKKFKDPNAPKRPPSAFFLFSSEYRPKIKGEHPGLSIGDVAKKLGEMWNNTAADDKQPYEKKAAKLKEKYEKDIAAYRAKGKPDAAKKGVVKAEKSKKKKEEEEDEEDEEDEEEEEDEEDEDEEEDDDDE
–	–	–	–	–	39	0.64	16000	65	–	–	–	–	FR-HMGB1 Box B 94-162 (helical-only) (ligand, also: biotin or His6 tag in some assays, sequence not given here, also called HMGB1A-c028; not shown: C-terminal Avi / biotinylation tag (BLI, NMR) or His6 tag (reverse peptide array)) PKRPPSAFFLFCSEYRPKIKGEHPGLSIGDVAKKLGEMWNNTAADDKQPYEKKAAKLKEKYEKDIAAYR
1300	0.206	164000	5500	–	–	–	–	–	–	0.06	3	5	dBB12L (double Box B HMGB1 construct with 12-residue linker) (ligand, also called dBB12L-HMGB1; dBB-HMGB1) KDPNAPKRPPSAFFLFCSEYRPKIKGEHPGLSIGDVAKKLGEMWNNTAADDKQPYEKKAAKLKEKYEKDIAAYRAKGKPDAAKKGVKDPNAPKRPPSAFFLFCSEYRPKIKGEHPGLSIGDVAKKLGEMWNNTAADDKQPYEKKAAKLKEKYEKDIAAYRAKGKPDAAKKGV

More lines, now with the values behind:

Binder	Kd [1] [nM]	koff [1] [s⁻¹]	kon [1] [M⁻¹ s⁻¹]	Kd [2] [nM]	Kd [3] [nM]	Kd (CXCL12 (CXC Ligand 12) [4]) [µM]	koff (CXCL12 (CXC Ligand 12) [4]) [s⁻¹]	kon (CXCL12 (CXC Ligand 12) [4]) [M⁻¹ s⁻¹]	Kd (CXCL12 (CXC Ligand 12) [5]) [µM]	Kd [6] [nM]	Bmax [7] [nM]	fold association rate against FR-HMGB1 [6] [fold]	fold dissociation rate against FR-HMGB1 [6] [fold]
fully-reduced HMGB1, full-length (1-214) (ligand, cysteines reduced (Cys 22, Cys 44, Cys 105), Tags differ by assay: biotinylated (c011) in BLI with CXCL12, His6-tagged in the reverse peptide array, TEV-cleaved in the RAGE ELISA and BLI; also called FR-HMGB1; FR FL-HMGB1 (c011)) GKGDPKKPRGKMSSYAFFVQTCREEHKKKHPDASVNFSEFSKKCSERWKTMSAKEKGKFEDMAKADKARYEREMKTYIPPKGETKKKFKDPNAPKRPPSAFFLFCSEYRPKIKGEHPGLSIGDVAKKLGEMWNNTAADDKQPYEKKAAKLKEKYEKDIAAYRAKGKPDAAKKGVVKAEKSKKKKEEEEDEEDEEDEEEEEDEEDEDEEEDDDDE	800	0.041	51000	2300	86.1	20.9	0.181	9000	15.3	–	–	–	–
FR-HMGB1 Box A 8-78 (helical-only) (ligand, biotinylated in BLI, also called minimal Box A 8-78; c027; not shown: biotinylation tag (BLI) or His6 tag (reverse peptide array)) PRGKMSSYAFFVQTCREEHKKKHPDASVNFSEFSKKCSERWKTMSAKEKGKFEDMAKADKARYEREMKTYI	–	–	–	–	–	18.7	0.312	17000	17.5	–	–	–	–
DS-HMGB1 1-164 (ligand, oxidized Box A (disulfide Cys 22-Cys 44)) GKGDPKKPRGKMSSYAFFVQTCREEHKKKHPDASVNFSEFSKKCSERWKTMSAKEKGKFEDMAKADKARYEREMKTYIPPKGETKKKFKDPNAPKRPPSAFFLFCSEYRPKIKGEHPGLSIGDVAKKLGEMWNNTAADDKQPYEKKAAKLKEKYEKDIAAYRAK	900	0.152	178000	3100	–	–	–	–	–	–	0.2	–	–
FR-HMGB1 Box B 89-174 (full HMG Box with flanking regions) (ligand, biotinylated in BLI and NMR, also called complete Box B; not shown: C-terminal biotinylation tag) SMKDPNAPKRPPSAFFLFCSEYRPKIKGEHPGLSIGDVAKKLGEMWNNTAADDKQPYEKKAAKLKEKYEKDIAAYRAKGKPDAAKKGV	–	–	–	–	–	7.1	0.159	22000	8.19	–	–	–	–
FR-HMGB1 Box A 1-88 (full HMG Box with flanking regions) (ligand, biotinylated in BLI, also called extended box A 1-88; c037; not shown: biotinylation tag) GKGDPKKPRGKMSSYAFFVQTCREEHKKKHPDASVNFSEFSKKCSERWKTMSAKEKGKFEDMAKADKARYEREMKTYIPPKGETKKKF	–	–	–	–	–	6.1	0.079	13000	12.6	–	–	–	–
DS Box A 1-88 (full HMG Box construct with flanking regions) (ligand, oxidized (disulfide Cys 22-Cys 44), also called oxidized Box A alone) GKGDPKKPRGKMSSYAFFVQTCREEHKKKHPDASVNFSEFSKKCSERWKTMSAKEKGKFEDMAKADKARYEREMKTYIPPKGETKKKF	15600	0.439	28000	53400	–	–	–	–	–	–	0.08	–	–
DS-HMGB1 1-184 (ligand, oxidized Box A (disulfide Cys 22-Cys 44)) GKGDPKKPRGKMSSYAFFVQTCREEHKKKHPDASVNFSEFSKKCSERWKTMSAKEKGKFEDMAKADKARYEREMKTYIPPKGETKKKFKDPNAPKRPPSAFFLFCSEYRPKIKGEHPGLSIGDVAKKLGEMWNNTAADDKQPYEKKAAKLKEKYEKDIAAYRAKGKPDAAKKGVVKAEKSKKKK	200	0.067	349000	500	33.9	–	–	–	–	–	–	–	–
